Measurements as given in patent publication US20230203196A1 (MABWELL THERAPEUTICS, published 2023).

T1: TMPRSS6 expressed in transfected HepG2 cells (UniProt Q8IU80 1-811, limits assumed)
T1 sequence (looked up): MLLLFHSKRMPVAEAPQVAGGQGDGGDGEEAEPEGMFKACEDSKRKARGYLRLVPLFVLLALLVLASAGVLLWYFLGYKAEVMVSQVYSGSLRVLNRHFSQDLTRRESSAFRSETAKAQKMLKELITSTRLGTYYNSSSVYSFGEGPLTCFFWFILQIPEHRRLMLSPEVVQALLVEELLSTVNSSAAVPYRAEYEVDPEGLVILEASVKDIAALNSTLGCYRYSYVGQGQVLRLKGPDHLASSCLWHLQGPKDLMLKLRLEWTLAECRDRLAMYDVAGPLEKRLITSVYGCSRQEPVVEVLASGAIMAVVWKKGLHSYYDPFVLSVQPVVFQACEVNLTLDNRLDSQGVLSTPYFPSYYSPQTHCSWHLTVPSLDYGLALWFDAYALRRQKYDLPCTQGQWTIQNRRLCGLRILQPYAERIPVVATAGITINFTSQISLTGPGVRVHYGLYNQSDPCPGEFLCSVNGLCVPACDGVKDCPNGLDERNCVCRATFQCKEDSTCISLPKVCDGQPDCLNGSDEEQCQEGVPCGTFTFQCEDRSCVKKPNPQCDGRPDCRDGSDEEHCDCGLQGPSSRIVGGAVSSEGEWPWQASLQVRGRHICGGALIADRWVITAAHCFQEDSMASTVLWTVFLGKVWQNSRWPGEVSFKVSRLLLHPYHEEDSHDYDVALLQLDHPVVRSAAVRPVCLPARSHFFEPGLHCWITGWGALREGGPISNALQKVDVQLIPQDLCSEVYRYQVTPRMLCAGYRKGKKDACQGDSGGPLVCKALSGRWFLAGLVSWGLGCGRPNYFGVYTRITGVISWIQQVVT

B1: humanized anti-TMPRSS6 antibody variant hzMWTx-002Var (antibody, human IgG1, kappa, N297A, V domains shown)
VH: EVQLVQSGAEVKKPGASVKVSCKASGFNIKDYYIHWVRQATGQGLEWMGRIDPEDAESEYAPKFQGRVTITADTSTDTAYMELSSLRSEDTAVYYCTRGDSMMVTYFDYWGQGTLVTVSS
VL: DIQMTQSPSSLSASVGDRVTITCKASQDVSTAVAWYQQKPGKAPKLLIYWAFTRHTGVPSRFSGSGSGTDYALTISSLQPEDFATYYCQQHYRSPWTFGGGTKVEIKR
B2: humanized anti-TMPRSS6 antibody variant hzMWTx-003Var (antibody, human IgG1, kappa, L234A L235A, V domains shown)
VH: QVQLVQSGAEVKKPGASVKVSCKASGFNIEDYYMHWVRQAPGQRLEWMGRIDPEDAETTYSPKFQGRVTIIPDTSANTAYMELSSLRSEDTAVYYCARSIYLDPMDYWGQGTLVTVSS
VL: DIQMTQSPKSLSASVGDRVTITCRASQDVTTALAWYQQKPGQSPKLLIYWATTRHSGVPSRFSGSGSGTDFTLTISSLQPEDFATYYCQQHYSTPYTFGQGTKLEIKR
B3: MWTx-003 anti-TMPRSS6 antibody (antibody, mouse IgG2b, kappa, V domains shown)
VH: EVQLQQSGAELVKPGASVKLSCTASGFNIEDYYIHWVKERTEQGLEWIGRIDPEDGETTYAPQFQGKATIIPDTSSNTAYMQLSSLTSEDAAVYYCARSIYLDPMDYWGQGTSVTVSS
VL: DIVMTQSHKFMSTSVGDRVSITCKASQDVTTAVAWYQQKPGQSPKILIYWATTRHTGVPDRFTGSISGTTYILTISSVQAEDLALYYCQQHYSTPYTFGGGTKLEIKR
B4: humanized anti-TMPRSS6 antibody variant hzMWTx-001Var (antibody, human IgG1, kappa, N297A, V domains shown)
VH: EVQLVQSGAEVKKPGASVKVSCKASGYTFTSYWITWVRQAPGQRLEWIGNIYPGSGSTYYNEKFKSKATITRDTSSRTAYMELSSLRSEDTAVYYCAPYDADYAMDYWGQGTLVTVSS
VL: DIQMTQSPSSLSASVGDRVTITCKASQDISNYLSWFQQKPGKAPKLLIYRANRLVEGVPSRFSGSGSGTDFTLTISSLQPEDFATYFCLQYDEFPLTFGGGTKVEIKR
B5: MWTx-001 anti-TMPRSS6 antibody (antibody, mouse IgG2a, kappa, V domains shown)
VH: QVQLQQPGAELAKPGASVKMSCKASGYTFTSYWITWVKQRPGQDLEWIGNIYPGSGSTYYNEKFKSKATLTVDTSSRTAYMQLSSLTSADSAVYYCAPYDSDYAMDYWGQGTSVTVSS
VL: DIKMTQSPSSMYASLGERVTITCKASQDINNYLSWFQQKPGKSPKTLIYRANRLVDGVPSRVSGSGSGQDYSLTISSLEYEDVGIYFCLQYDEFPLTFGAGTKLELKR

Target: T1, TMPRSS6 expressed in transfected HepG2 …
Test: cell-based or functional assay

Binder	HAMP promoter activity (HAMP-luciferase reporter assay in HepG2 cells expressing TMPRSS6), EC50 [µg/mL]
B1	0.3
B2	0.3
B3	2
B4	0.8
B5	3
